Measured values as given in the supplement of paper PMC7877785.
± gives the uncertainty stated by the source.

Assay: self-splicing fitness, log relative to wild type (ln ratio); higher = more splicing; Tetrahymena group I intron in knt gene, E. coli kanamycin selection, DiMSum; sequences stand for … in CUCUCU…GGAGGGAAAAGUUAUCAGGCAUGCACCUGGUAGCUAGUCUUUAAACCAAUAGAUUGCAUCGGUUUAAAAGGCAAGACCGUCAAAUUGCGGGAAAGGGGUCAACAGCCGUUCAGUACCAAGUCUCAGGGGAAACUUUGAGAUGGCCUUGCAAAGGGUAUGGUAAUAAGCUGACGGACAUGGUCCUAACCACGCAGCCAAGUCCUAAGUCAACAGAUCUUCUGUUGAUAUGGAUGCAGUUCACAGACUAAAUGUCGGUCGGGGAAGAUGUAUUCUUCUCAUAAGAUAUAGUCGGACCUCUCCUUAAUGGGAGCUAGCGGAUGAAGUGAUGCAACACUGGAGCCGCUGGGAACUAAUUUGUAUGCGAAAGUAUAUUGAUUAGUUUUGGAGUACUCGUGGUCG
Outline: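 DiMSum derived fitness as the error-weighted combination of fold changes across replicates, kanamycin versus no kanamycin, normalised to wild type. E. coli BL21(DE3) held the library, which randomised all eight P1ex-region intron nucleotides within the knt kanamycin-resistance gene on pET-22b(+). Six replicate transformations grew overnight at 37°C or 30°C on LB agar with or without 25 μg/mL kanamycin, also containing 100 μg/mL carbenicillin, 50 μM IPTG and 0.2% rhamnose, and pooled colonies were amplicon-sequenced on an Illumina HiSeq 2500.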

| Sequence | self-splicing fitness (ln) (30 °C) | self-splicing fitness (ln) (37 °C) |
| --- | --- | --- |
| GCUUAGCAAUAUUACGCCCA | -1.96 ± 0.24 | -0.0842 ± 0.23 |
| GCUUAGCAAUAUUACGCCUG | -2.35 ± 0.14 | -1.02 ± 0.13 |
| GCUUAGCAAUAUUACGCGAA | -2.55 ± 0.11 | -1.98 ± 0.11 |
| GCUUAGCAAUAUUACGCGUA | -1.39 ± 0.16 | -1.71 ± 0.17 |
| GCUUAGCAAUAUUACGCUGA | -2.77 ± 0.17 | -3.37 ± 0.26 |
| GCUUAGCAAUAUUACGGCAG | -4.61 ± 0.46 | -2.63 ± 0.34 |
| GCUUAGCAAUAUUACGGCAU | -1.79 ± 0.17 | -1.61 ± 0.2 |
| GCUUAGCAAUAUUACGGCGA | -1.75 ± 0.14 | -1.33 ± 0.16 |
| GCUUAGCAAUAUUACGGGAU | -1.56 ± 0.074 | -0.453 ± 0.09 |
| GCUUAGCAAUAUUACGGGGG | -1.53 ± 0.11 | -1.54 ± 0.15 |
| GCUUAGCAAUAUUACGGUAA | -2.18 ± 0.14 | -1.54 ± 0.13 |
| GCUUAGCAAUAUUACGUCAC | – | -1.53 ± 0.5 |
| GCUUAGCAAUAUUACGUCGU | -0.74 ± 0.097 | 0.231 ± 0.14 |
| GCUUAGCAAUAUUACGUGUA | -1.03 ± 0.077 | -0.175 ± 0.083 |
| GGAAAGCAAUAUUACGAAGG | -3.22 ± 0.23 | -2.5 ± 0.38 |
| GGAAAGCAAUAUUACGAGAU | -2.44 ± 0.17 | -2.17 ± 0.29 |
| GGAAAGCAAUAUUACGAGUC | -0.868 ± 0.11 | -1.48 ± 0.12 |
| GGAAAGCAAUAUUACGAUCA | 0.0514 ± 0.081 | -0.282 ± 0.099 |
| GGAAAGCAAUAUUACGCAGU | -2.78 ± 0.13 | -1.47 ± 0.12 |
| GGAAAGCAAUAUUACGCAUU | -2.5 ± 0.12 | -2.55 ± 0.25 |
| GGAAAGCAAUAUUACGCCAU | -1.76 ± 0.18 | -0.946 ± 0.31 |
| GGAAAGCAAUAUUACGCCUA | -1.28 ± 0.18 | -0.669 ± 0.23 |
| GGAAAGCAAUAUUACGCGAU | -2.98 ± 0.18 | -1.02 ± 0.17 |
| GGAAAGCAAUAUUACGCGGA | -1.96 ± 0.13 | -0.353 ± 0.1 |
| GGAAAGCAAUAUUACGCGGU | -3.32 ± 0.13 | -3.21 ± 0.2 |

| Sequence | self-splicing fitness (ln) (30 °C) | self-splicing fitness (ln) (37 °C) |
| --- | --- | --- |
| GGAAAGCAAUAUUACGCUCA | -0.428 ± 0.12 | -0.303 ± 0.17 |
| GGAAAGCAAUAUUACGCUUU | – | -2.56 ± 0.3 |
| GGAAAGCAAUAUUACGGAAU | -2.55 ± 0.16 | -1.1 ± 0.15 |
| GGAAAGCAAUAUUACGGACG | -0.879 ± 0.087 | 0.281 ± 0.1 |
| GGAAAGCAAUAUUACGGAGC | -1.43 ± 0.17 | -1.49 ± 0.2 |
| GGAAAGCAAUAUUACGGCGC | -0.392 ± 0.16 | 0.131 ± 0.21 |
| GGAAAGCAAUAUUACGGCUA | -0.34 ± 0.2 | -0.931 ± 0.18 |
| GGAAAGCAAUAUUACGGGCG | -0.494 ± 0.079 | -0.213 ± 0.11 |
| GGAAAGCAAUAUUACGGUAU | -1.82 ± 0.11 | -1.31 ± 0.13 |
| GGAAAGCAAUAUUACGGUUA | -1.33 ± 0.11 | -0.365 ± 0.099 |
| GGAAAGCAAUAUUACGUACU | -1.25 ± 0.082 | -0.834 ± 0.13 |
| GGAAAGCAAUAUUACGUCAG | -3.08 ± 0.38 | -2.25 ± 0.27 |
| GGAAAGCAAUAUUACGUCUC | -3.22 ± 0.41 | – |
| GGAAAGCAAUAUUACGUGCG | -0.344 ± 0.11 | -0.596 ± 0.12 |
| GGAAAGCAAUAUUACGUGUA | -1.92 ± 0.096 | -1.8 ± 0.13 |
| GGAAAGCAAUAUUACGUGUC | -3.94 ± 0.31 | -1.91 ± 0.19 |
| GGACAGCAAUAUUACGAAAA | -1.42 ± 0.19 | -1.36 ± 0.15 |
| GGACAGCAAUAUUACGAAUC | -0.0402 ± 0.12 | 0.32 ± 0.17 |
| GGACAGCAAUAUUACGACAA | -1.7 ± 0.21 | -0.0889 ± 0.12 |
| GGACAGCAAUAUUACGACAG | -3.31 ± 0.21 | -2.33 ± 0.27 |
| GGACAGCAAUAUUACGAGUU | -3.64 ± 0.19 | -1.24 ± 0.11 |
| GGACAGCAAUAUUACGAUCG | -0.492 ± 0.099 | 0.519 ± 0.11 |
| GGACAGCAAUAUUACGCAAU | -0.155 ± 0.13 | 0.311 ± 0.11 |
| GGACAGCAAUAUUACGCUCC | – | -1.24 ± 0.46 |
| GGACAGCAAUAUUACGCUUA | -0.319 ± 0.08 | 0.1 ± 0.1 |

| Sequence | self-splicing fitness (ln) (30 °C) | self-splicing fitness (ln) (37 °C) |
| --- | --- | --- |
| GGACAGCAAUAUUACGGACA | -0.509 ± 0.11 | -0.307 ± 0.11 |
| GGACAGCAAUAUUACGGACU | -1.01 ± 0.079 | -0.461 ± 0.09 |
| GGACAGCAAUAUUACGGCAU | -0.228 ± 0.053 | 0.0818 ± 0.068 |
| GGACAGCAAUAUUACGGCGG | -2.64 ± 0.13 | -1.52 ± 0.13 |
| GGACAGCAAUAUUACGGGUG | -2.51 ± 0.097 | -1.64 ± 0.1 |
| GGACAGCAAUAUUACGUAUG | -1.13 ± 0.073 | -0.419 ± 0.08 |
| GGACAGCAAUAUUACGUCCG | -2.1 ± 0.12 | -1.89 ± 0.18 |
| GGACAGCAAUAUUACGUCUC | -4.03 ± 0.18 | -2.57 ± 0.2 |
| GGACAGCAAUAUUACGUGGU | -2.9 ± 0.12 | -1.08 ± 0.11 |
| GGACAGCAAUAUUACGUGUU | -3.42 ± 0.13 | -2.44 ± 0.2 |
| GGACAGCAAUAUUACGUUUA | -0.44 ± 0.059 | 0.258 ± 0.077 |
| GGAGAGCAAUAUUACGACUC | -1.21 ± 0.23 | -0.0732 ± 0.34 |
| GGAGAGCAAUAUUACGACUG | – | -1.15 ± 0.27 |
| GGAGAGCAAUAUUACGAGCC | -2.64 ± 0.49 | – |
| GGAGAGCAAUAUUACGAGCG | – | -1.86 ± 0.37 |
| GGAGAGCAAUAUUACGAUAG | – | -1.94 ± 0.28 |
| GGAGAGCAAUAUUACGAUCA | -1.04 ± 0.16 | -1.73 ± 0.25 |
| GGAGAGCAAUAUUACGCAAU | -3.02 ± 0.2 | -2.55 ± 0.31 |
| GGAGAGCAAUAUUACGCGUG | -3.84 ± 0.33 | -2.53 ± 0.18 |
| GGAGAGCAAUAUUACGCUCC | – | -1.68 ± 0.45 |
| GGAGAGCAAUAUUACGCUCG | -2.7 ± 0.24 | -2.45 ± 0.19 |
| GGAGAGCAAUAUUACGCUUA | -2.12 ± 0.14 | -0.41 ± 0.14 |
| GGAGAGCAAUAUUACGGAGU | – | -2.68 ± 0.31 |
| GGAGAGCAAUAUUACGGCAA | -2.75 ± 0.47 | -1.59 ± 0.43 |
| GGAGAGCAAUAUUACGGUUG | -2.38 ± 0.22 | -2.05 ± 0.38 |

| Sequence | self-splicing fitness (ln) (30 °C) | self-splicing fitness (ln) (37 °C) |
| --- | --- | --- |
| GGAGAGCAAUAUUACGUCGG | -4.62 ± 0.39 | -3.75 ± 0.3 |
| GGAGAGCAAUAUUACGUCUA | -1.23 ± 0.13 | -1.4 ± 0.1 |
| GGAGAGCAAUAUUACGUGAG | -3.33 ± 0.23 | -1.56 ± 0.2 |
| GGAGAGCAAUAUUACGUGCC | – | -2.38 ± 0.42 |
| GGAGAGCAAUAUUACGUGGC | – | -1.63 ± 0.25 |
| GGAGAGCAAUAUUACGUUCU | -3.27 ± 0.25 | -3.5 ± 0.39 |
| GGAGAGCAAUAUUACGUUUG | – | -2.01 ± 0.38 |
| GGAUAGCAAUAUUACGAACA | -1.95 ± 0.19 | 0.22 ± 0.15 |
| GGAUAGCAAUAUUACGAACG | 0.209 ± 0.14 | -0.196 ± 0.18 |
| GGAUAGCAAUAUUACGAAUA | – | 0.53 ± 0.21 |
| GGAUAGCAAUAUUACGACAG | -4.21 ± 0.37 | -2.36 ± 0.29 |
| GGAUAGCAAUAUUACGACCG | -1.59 ± 0.26 | -1.08 ± 0.28 |
| GGAUAGCAAUAUUACGACGA | -1.43 ± 0.12 | -0.57 ± 0.1 |
| GGAUAGCAAUAUUACGACGG | – | -2.87 ± 0.48 |
| GGAUAGCAAUAUUACGACUC | -0.498 ± 0.16 | 0.298 ± 0.23 |
| GGAUAGCAAUAUUACGAGAG | -1.8 ± 0.23 | -3.09 ± 0.47 |
| GGAUAGCAAUAUUACGAGCG | -0.76 ± 0.1 | -0.0359 ± 0.088 |
| GGAUAGCAAUAUUACGAGUG | -3.38 ± 0.22 | -1.41 ± 0.14 |
| GGAUAGCAAUAUUACGAUAC | -1.23 ± 0.13 | -1.8 ± 0.16 |
| GGAUAGCAAUAUUACGAUGA | -1.04 ± 0.15 | -0.858 ± 0.14 |
| GGAUAGCAAUAUUACGCAUA | -1.88 ± 0.45 | -2.04 ± 0.39 |
| GGAUAGCAAUAUUACGCCUC | -2.02 ± 0.32 | – |
| GGAUAGCAAUAUUACGGCAC | -1.16 ± 0.14 | -0.0176 ± 0.17 |
| GGAUAGCAAUAUUACGGCAU | -0.507 ± 0.09 | 0.598 ± 0.11 |
| GGAUAGCAAUAUUACGGGUA | -2.41 ± 0.16 | 0.0404 ± 0.13 |
